Assay [1] has as its target Plant-expressed N6 (pN6), broadly neutralising anti-HIV monoclonal antibody N6 expressed in glycoengineered ΔXF N. benthamiana (human). As to the kind of experiment: SPR. For orientation: Surface plasmon resonance follows binding to a sensor surface in real time, without labels.
In assay [2] the target is Mammalian cell-expressed N6 (mN6), broadly neutralising anti-HIV monoclonal antibody N6 expressed in HEK-293T cells (human). As to the kind of experiment: SPR.

One may read the Kd as the equilibrium constant for the complex coming apart. Read a low Kd as higher affinity.

Sequence of Plant-expressed N6 (pN6), broadly neutralising anti-HIV monoclonal antibody N6 expressed in glycoengineered ΔXF N. benthamiana (human) (heavy, as listed by the source, chain 1 of 2): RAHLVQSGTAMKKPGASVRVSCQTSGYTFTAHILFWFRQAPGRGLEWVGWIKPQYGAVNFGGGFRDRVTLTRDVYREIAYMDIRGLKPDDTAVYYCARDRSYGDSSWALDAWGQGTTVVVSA
Sequence of Plant-expressed N6 (pN6), broadly neutralising anti-HIV monoclonal antibody N6 expressed in glycoengineered ΔXF N. benthamiana (human) (light, as listed by the source, chain 2 of 2): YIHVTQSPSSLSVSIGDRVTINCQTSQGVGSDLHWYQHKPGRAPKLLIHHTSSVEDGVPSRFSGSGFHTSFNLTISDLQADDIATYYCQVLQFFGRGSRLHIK
Sequence of Mammalian cell-expressed N6 (mN6), broadly neutralising anti-HIV monoclonal antibody N6 expressed in HEK-293T cells (human) (heavy, as listed by the source, chain 1 of 2): as the sequence (heavy, as listed by the source, chain 1 of 2) above
Sequence of Mammalian cell-expressed N6 (mN6), broadly neutralising anti-HIV monoclonal antibody N6 expressed in HEK-293T cells (human) (light, as listed by the source, chain 2 of 2): as the sequence (light, as listed by the source, chain 2 of 2) above
Sequence of soluble FcγRIIIa (P08637 17-208): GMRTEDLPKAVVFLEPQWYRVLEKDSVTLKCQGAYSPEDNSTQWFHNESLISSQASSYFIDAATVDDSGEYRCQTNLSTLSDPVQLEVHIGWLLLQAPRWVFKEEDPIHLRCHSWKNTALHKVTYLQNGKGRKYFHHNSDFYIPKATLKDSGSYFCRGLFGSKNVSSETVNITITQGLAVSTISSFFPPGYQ

Regarding “recombinant, soluble HIV-1 UG37 gp140 (domain or fragment)”, the Kd is 0.0119 µM in assay [1] and 0.0171 µM in assay [2].

Turning to “soluble FcγRIIIa (from UniProt P08637 17-208) (receptor)”, the results for the Kd in assay [1] and in assay [2] were 0.0644 µM and 0.858 µM, respectively.

For the origin of these results see article PMC8240387.
